Measurements as given in patent publication US20260028391A1 (HUMABS BIOMED, published 2026).

B1: MPH12 VH-FRGL / MPH12 VL-FRGL (antibody, V domains shown)
VH: QVQLVESGGGLVKPGGSLRLSCAASGFTFSGFYMKWIRQAPGKGLEWVSSISASGSYTNYADSVEGRFTISRDNAKNSLYLQMNSLRAEDTAVYYCARGDSYCGASACHGEFFHKWGQGTLVTVSS
VL: QSVLTQPPSVSGAPGQRVTISCTGSDSNIGADFDVHWYQQLPGTAPKLLIYGNINRPSGVPDRFSGSKSGTSASLAITGLQAEDEADYYCQSYDRSLHYVFGTGTKVTVL
notes: MPH12 variant; VH and VL only
B2: MPH12 VH-FRGL / MPH12 VL-D25E (antibody, V domains shown)
VH: QVQLVESGGGLVKPGGSLRLSCAASGFTFSGFYMKWIRQAPGKGLEWVSSISASGSYTNYADSVEGRFTISRDNAKNSLYLQMNSLRAEDTAVYYCARGDSYCGASACHGEFFHKWGQGTLVTVSS
VL: QSVLTQPPSVSGAPGQRVTISCTGSESNIGADFDVHWYQQLPGTAPKLLIYGNINRPSGVPDRFSGSRSGTSAFLAITRLQAEDEADYYCQSYDRSLHYVFGAGTKVTVL
notes: MPH12 variant; VH and VL only
B3: MPH12 VH-FRGL / MPH12 VL (antibody, V domains shown)
VH: QVQLVESGGGLVKPGGSLRLSCAASGFTFSGFYMKWIRQAPGKGLEWVSSISASGSYTNYADSVEGRFTISRDNAKNSLYLQMNSLRAEDTAVYYCARGDSYCGASACHGEFFHKWGQGTLVTVSS
VL: QSVLTQPPSVSGAPGQRVTISCTGSDSNIGADFDVHWYQQLPGTAPKLLIYGNINRPSGVPDRFSGSRSGTSAFLAITRLQAEDEADYYCQSYDRSLHYVFGAGTKVTVL
notes: MPH12 variant; VH and VL only
B4: MPH12 VH-D62E / MPH12 VL-FRGL (antibody, V domains shown)
VH: QVQLVESGGGLVKPGGSLRLSCVASGFTFSGFYMKWIRQAPGKGLEWVSSISASGSYTNYAESVEGRFTVSRDNAKNSLFLLMSSLRAEDTAVYYCARGDSYCGASACHGEFFHKWGQGTLVTVSS
VL: QSVLTQPPSVSGAPGQRVTISCTGSDSNIGADFDVHWYQQLPGTAPKLLIYGNINRPSGVPDRFSGSKSGTSASLAITGLQAEDEADYYCQSYDRSLHYVFGTGTKVTVL
notes: MPH12 variant; VH and VL only
B5: MPH12 VH-FRGL / MPH12 VL-S26A (antibody, V domains shown)
VH: QVQLVESGGGLVKPGGSLRLSCAASGFTFSGFYMKWIRQAPGKGLEWVSSISASGSYTNYADSVEGRFTISRDNAKNSLYLQMNSLRAEDTAVYYCARGDSYCGASACHGEFFHKWGQGTLVTVSS
VL: QSVLTQPPSVSGAPGQRVTISCTGSDANIGADFDVHWYQQLPGTAPKLLIYGNINRPSGVPDRFSGSRSGTSAFLAITRLQAEDEADYYCQSYDRSLHYVFGAGTKVTVL
notes: MPH12 variant; VH and VL only
B6: MPH12 VH-FRGL / MPH12 VL-D25S (antibody, V domains shown)
VH: QVQLVESGGGLVKPGGSLRLSCAASGFTFSGFYMKWIRQAPGKGLEWVSSISASGSYTNYADSVEGRFTISRDNAKNSLYLQMNSLRAEDTAVYYCARGDSYCGASACHGEFFHKWGQGTLVTVSS
VL: QSVLTQPPSVSGAPGQRVTISCTGSSSNIGADFDVHWYQQLPGTAPKLLIYGNINRPSGVPDRFSGSRSGTSAFLAITRLQAEDEADYYCQSYDRSLHYVFGAGTKVTVL
notes: MPH12 variant; VH and VL only
B7: MPK150-v2 (antibody, V domains shown)
VH: EVQLVESGGGLVKPGGSLRLSCEASGISLSGYYMIWIRQAPGKGLEWISSISGSSTYIDYADSVRGRFTISRHNGQNTIYLQMNSLRVEDTAVYFCATEQTPSPGPFELWGRGILVTVSS
VL: QSVLTQPPSVSGAPGQRVTIFCTGTSSNIGTGYDVHWYQQFPGTSPKLLIFRNSNRPSGVPDRFSGSKSGSSASLAIAGLQAEDEADYYCQSYDRGVNGWVFGGGTKLTVL
notes: VH and VL only
B8: MPK158 (antibody, V domains shown)
VH: EVQLVESGGGLVKPGGSLRLSCAASGFSISGFYMIWIRQAPGKGLEWISDISASSSYIDYADSVKGRFTISRDNGQNTVHLLMNNLRADDTGVYYCAREQTPSPGPFDLWGQGTLVTVST
VL: QPVLTQPPSVSGAPGQRVTISCTGRSSNIGAGYDVHWYQHLPGTSPKLLIYRNSNRPSGVPDRFSGSTSGTSASLAITGLQADDEADYYCQAYDRILGGWAFGGGTKLTVL
notes: VH and VL only
B9: MPK145 (antibody, V domains shown)
VH: EVQLVESGGGLVEPGGSLRLSCAASGFTISGYGMSWVRQAPGKGLEWVSSISASSSYIYYGDAMKGRITISRDNGWNSMYLQMNSLRTEDTAVYYCATAPIEPPYFDLWGRGTLVTVSS
VL: QSVVTQPPSVSGAPGQRVTISCTGSSSNIGAGYDVHWYQQFPGKAPKVLIYGNNNRPSGVPDRFAASNSGASASLAITGLQAEDEAAYFCQSYDRRLSGPVFGGGTKLTVL
notes: VH and VL only
B10: MPK144 (antibody, V domains shown)
VH: EVQLVESGGGLVRPGGSLRLSCAASGFTFTGYYMMWIRQAPGKGLEWISDISSSSSYTNYADSVKGRFAISRDNAQNTLYLQMNSLRAEDTAVYYCATEQVPSPGPFDLWGQGTLVTVSS
VL: QSVLTQPPSVSGAPGQRVTISCTGSSSNFGAGYDVHWYQQFPGTSPKLLIYRNTNRPSGVPDRFSGSKSGTSASLAITGLQAEDEADYYCQSYDRSLTGWVFGGGTKLTVL
notes: VH and VL only
B11: MPK153 (antibody, V domains shown)
VH: EVHLVESGGGLVKPGGSLRLSCAASGFTFTGYFMIWIRQAPGKGLEWISYISSSSNYINYADSVKGRFTISRDNGQNTLYLQMNSLRPDDTAVYYCATEQVPSPGPFDLWGQGTLVTVSS
VL: QSVLTQPPSVSGAPGQRVIISCTGTSSNIGAGYDVHWYQQFPGASPKLLIFRNTDRPSGVPDRFSGSKSGSSASLAIAGLQAEDEADYYCQSYDRSLDGWVFGGGTKVTVL
notes: VH and VL only
B12: MPK155 (antibody, V domains shown)
VH: EVQLVESGGGLVKPGGSLRLSCEASGISLSGYYMIWIRQAPGKGLEWISSISSSSNYIDYADSVRGRFTISRHNGQNTLYLQMNSLRVEDTAVYFCATEQTPSPGPFDLWGQGILVTVSS
VL: QSVLTQPPSVSGAPGQRVTIFCTGTSSNLGAGYDVHWYQQFPGTSPKLLIYRYTNRPSGVPDRFSGSKSGSSASLAIAGLQAEDEADYYCQSYDRSVSGWVFGGGTKLTVL
notes: VH and VL only
B13: MPK196 (antibody, V domains shown)
VH: QVQLVESGGGLVKPGGSLRLSCAASRFKFGDYYMSWIRQAPGKGLEWVSNISPSSSYTNYADSVKGRFTISRDNANNLLYLQMNSLRAEDTAVYYCARESCSGGSCSLHGMDVWGQGTTVTVAS
VL: QSVLTQPPSVSGAPGQRVTISCTGSSSNIGAGYDVHWYQQLPGTAPKLLIYDNSNRPSGVPDRFSGSKSGTSASLAITGLRAEDDADYYCQSYDRSLGGSIFGGGTKLTVL
notes: VH and VL only
B14: MPK146 (antibody, V domains shown)
VH: QVQLVESGGGLVKPGGSLRLSCAASGFTFSGYYMIWIRQAPGKGLEWIASISGSSNYIDYADSVRGRFTISRDNARNILDLQMNSLRAGDTALYYCATEQVPSPGPFDLWGQGTLVTVSS
VL: QSVLTQPPSVSGAPGQRVTISCTGSNSNLGAGYDVHWYQQFPGTSPKLLIYRNTNRPSGVPDRFAGSKSGTSASLAITGLQAEDEADYYCQSYDRSLSGWVFGGGTKLTVL
notes: VH and VL only
B15: MPK149 (antibody, V domains shown)
VH: QVQLVESGGGLVKPGGSLRLSCEASGFTISGYFMIWIRQAPGKGLEWISSISGSSTYTDYAESVKGRFTISRDNGRSTLYLQMNSLRVEDTAVYYCATEQTPSPGPFDLWGQGTLVTVSS
VL: QSVVTQPPSVSGAPGQRVTISCTGTSSNIGAGYDVHWYQQFPGTSPRLLINRNTNRPSGVPDRFSGSQSGSSASLAIAGLQAEDEADYYCQSYDRSVSGWVFGGGTKLTVL
notes: VH and VL only
B16: MPK151 (antibody, V domains shown)
VH: EVQLVESGGGLVKPGGSLRLSCAASGLTISGYYMIWIRQAPGKGLEWISDISASSTYTDYAESVKGRFSISRDNGQNTVYLQMNSLRAEDTAVYYCATEQTPSPGPFDLWGQGTLVTVSS
VL: QSVLTQPPSVSGAPGQKITISCTGGSSNFGAGYDVHWYQQFPGTSPKLLIYRNTFRPSGVPDRFSGSKSGTSASLAITGLQAEDEADYYCQSYDRSLSGWVFGGGTKLTVL
notes: VH and VL only
B17: MPK204 (antibody, V domains shown)
VH: QVQLVESGGGLVKPGGSLRLSCEASGLSLSGYYMIWIRQAPGKGLEWISSISSSSNYIDYADSVKGRFTISRHNGQNTLYLQMNSLRVEDTAVYYCATEQTPSPGPFDLWGQGTLVTVSS
VL: QSVLTQPPSVSGAPGQRVTISCTGTSSNIGTGYDVHWYQQFPGTSPKLLIYRNTNRPSGVPDRFSGSKSGSSASLAIAGLQAEDEADYYCQSYDRSVSGWVFGGGTKLTVL
notes: VH and VL only
B18: MPK174-v2 (antibody, V domains shown)
VH: EVQLVESGGGLVKPGGSLRLSCAASRFKFGDYYMSWIRQAPGKGLEWVSNISPSSSYTNYADSVKGRFTISRDNAKNLLYLQMNSLRAEDTAVYYCARESCSGGSCSLHGMDVWGQGTTVTVAS
VL: QSVLTQPPSVSGAPGQRVTISCTGSSSNIGAGYDVHWYQQLPGTAPKLLIYDNSNRPSGVPDRFSGSKSGTSASLAITGLRAEDDADYYCQSYDRSLGGSIFGGGTKLTVL
notes: VH and VL only
B19: MPK152 (antibody, V domains shown)
VH: EVQLVESGGGLVKPGGSLRLSCAASGLTISGYYMIWIRQAPGKGLEWISYISGSSSYTNYADSVKGRFTISRDNGQNTLFLQMDSLRVEDTAVYFCATEETPSPGPFGLWGQGTLVTVSS
VL: QSVVTQPPSVSGAPGQRVTISCTGTSSNIGAGYDVHWYQQFPGTSPKLLIFRNTNRPSGVPDRFSGSTSGSSASLAITGLQTEDEADYYCQSYDRSLDGWVFGGGTELTVL
notes: VH and VL only
B20: MPK157 (antibody, V domains shown)
VH: EVQLVESGGGLVKPGGSLRLSCSASGFTLSGYNMNWVRQAPGKGLEWISYISASSSYINYADSVKGRFTISRDNGRSSLYLQMNSLRAEDTAVYFCTTQAELPGWFDPWGQGTLVTVSS
VL: QSVLTQPPSMSGAPGQRVTISCTGSSSNIGAGYDVNWYRQLPGTAPQLLIYRNTNRPSGVPDRFSGSNSGTSASLAITGLQADDEAHYYCQSYDRSLSGWVFGGGTKLTVL
notes: VH and VL only
B21: MPK162 (antibody, V domains shown)
VH: EVQLVESGGGLVKPGDSLRLSCAASGFSLSSYYMFWIRQAPGKGLEWVSDISGGSTFTNYADSVKGRFTISRDNAKKVLYLQMNSLRVDDSAVYYCVRGSSISPNWFESWGQGALVTVSS
VL: QSVLTQPPSVSGAPGQRVTISCTGTSSNIGAGYDVHWYQQVPGTAPKLLIYGNSNRPSGVPDRFSGSKSGTAASLAINGLQTEDEAEYYCQSYDRSLTGSYVFGSGTRVFVR
notes: VH and VL only

The binders below were run against T1, DS-Cav1 RSV F (respiratory syncytial virus) (assay: ELISA on DS-Cav1 RSV F).
T1 construct: also called DC-VCav1

Q: With B1 as the binder, how does the EC50 read?
A: Its EC50 is 0.0305 µg/mL.

Q: How did the EC50 turn out when B2 was run?
A: The EC50 was 0.034 µg/mL.

Q: Which EC50 does the source give for B3 here?
A: Its EC50 is 0.0328 µg/mL.

Q: How did the EC50 turn out when B4 was run?
A: Its EC50 is 0.0267 µg/mL.

Q: B5 was tested. Which EC50 did it give?
A: The EC50 was 0.0397 µg/mL.

Q: B6 was tested. Which EC50 did it give?
A: The EC50 was 0.0219 µg/mL.

These binders were tested against RSV fusion glycoprotein (RSV-F) (respiratory syncytial virus) (assay: SPR; F protein loaded on streptavidin sensors, mAb in solution).
Experimental: Binding affinity of mAbs for RSV-F protein, MPV-F D280 protein, and MPV-F N280 F variant protein was assessed using surface plasmon resonance (SPR).

Q: B7 was tested. Which Kd did it give?
A: The Kd was 1 pM.

Q: B8 was tested. Which Kd did it give?
A: The Kd was 1 pM.

Q: B9 was tested. Which Kd did it give?
A: Its Kd is 1 pM.

Q: B10 was tested. Which Kd did it give?
A: The Kd was 1 pM.

Q: Which Kd does the source give for B11 here?
A: The Kd was 460 pM.

Q: Which Kd does the source give for B12 here?
A: The Kd was 6.3 pM.

Q: How did the Kd turn out when B13 was run?
A: The Kd was 1 pM.

Q: B14 was tested. Which Kd did it give?
A: The Kd was 9.5 pM.

Q: B15 was tested. Which Kd did it give?
A: Its Kd is 1 pM.

Q: How did the Kd turn out when B16 was run?
A: The Kd was 80 pM.

Q: For B17, which Kd is on record?
A: Its Kd is 290 pM.

Q: For B18, which Kd is on record?
A: The Kd was 1 pM.

Q: B19 was tested. Which Kd did it give?
A: Its Kd is 1 pM.

Q: How did the Kd turn out when B20 was run?
A: The Kd was 1 pM.

Q: With B21 as the binder, how does the Kd read?
A: Its Kd is 100000 pM.
